Assay results as given in patent publication US20190375844A1 (OSE IMMUNOTHERAPEUTICS, published 2019).
Changes are numbered by the printed parent chain. In names and notes the source's numbering stands.

B1: MD707-13 (antibody, from another filing, human IgG4, V domains shown)
VH: QLKESGPGLVQPSQTLSLTCTVSGLSLPNNNIAWIRQSPGKGLEWMGVIWSNGDTDYNSAIRSRLSISRDSSKSQVFLRMNSLQSEDTAMYFCAREGMTTLDYWGQGVVVTVSS
VL: EIVLTQSPTTMAASPGEKVTITCRASSSVSYMHWFQQKSGSSPKPWIYDSSDLASGVPDRFSGSGSGTSYSLTISSMEAEDAATYYCLQRSSYPRTFGGGTKLELKR
B2: N13B2-h3 (antibody, V domains shown)
VH: QVQLVESGGGLVKPGGSLRLSCAVSGFTLSDYYMAWIRQAPGKGLEWVSTISASGLRTYYPDSVKGRFTISRDNAKNSLYLQMNSLRAEDTAVYYCARPLSAHYGFNYFDYWGQGTLVTVSS
VL: EIVMTQSPATLSVSPGERATLSCRTSEDIYQGLAWYQQKPGQAPRLLIYSANTLHIGIPARFSGSGSGTEFTLTISSLQSEDFAVYYCQQYYDYPLAFGGGTKVEIKR
notes: also called humanized N13B2 of WO 2015/189302
B3: N13B2-hVL3 (antibody, V domains shown)
VH: B2 VH
VL: DIQMTQSPSSLSASVGDRVTITCRTSEDIYQGLAWYQQKPGKAPKLLVYSANTLHIGVPSRFSGSGSGTDYTLTISSLQPEDFATYFCQQYYDYPLAFGGGTKVEIKR
B4: N13B2-hVL4 (antibody, V domains shown)
VH: B2 VH
VL: B3 VL with V48L
notes: also called N13B2-VL4-V48L
B5: N13B2-hVL5 (antibody, V domains shown)
VH: B2 VH
VL: B3 VL with F87Y
notes: also called N13B2-VL5-F87Y
B6: N13B2-hVL6 (antibody, V domains shown)
VH: B2 VH
VL: B3 VL with V48L, F87Y
notes: also called N13B2-h3VL6; N13B2-VL6-V48L-F87Y
B7: 1A11 (antibody, V domains shown)
VH: EVQLQQSGPELLKPGASMKISCKASGYSFTGYTMNWVKQSHGKNLEWIGLINPYNGVTSYNQKFKGKATLTVAKSSSTAYMELLSLTSEDSAVYYCARGDGNYWYFDVWGAGTTVTVSS
VL: EIVLTQSPAITAASLGQKVTITCSASSSVTYMHWYQQKSGTSPKPWIYEISKLASGVPVRFSGSGSGTSYSLTISSMEAEDAAIYYCQEWNYPYTFGGGTKLEIK

Legend:
[1] = target: T1, recombinant hCD127 (Sino Biologicals, reference 10975-H08H) (human) (UniProt P16871); test: method not stated
T1 sequence: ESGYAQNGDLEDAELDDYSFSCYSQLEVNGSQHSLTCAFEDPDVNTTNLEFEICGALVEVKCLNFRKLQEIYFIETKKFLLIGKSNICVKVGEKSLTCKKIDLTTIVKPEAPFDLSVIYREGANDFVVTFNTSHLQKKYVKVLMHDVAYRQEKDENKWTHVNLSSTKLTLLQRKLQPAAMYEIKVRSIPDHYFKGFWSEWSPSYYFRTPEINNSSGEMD

[2] = target: T2, recombinant hCD127 (Sino Biologicals, reference 10975-H08H) (human, UniProt P16871 21-239); test: ELISA, hCD127 immobilized on plastic at 1 µg/ml (given as ED50)
T2 construct: Bought recombinant protein; In the Blitz assay the protein is said to be captured by an Fc fragment, and a second catalogue number (11612-H08H) is printed; also called human CD127 recombinant protein; recombinant human CD127
T2 chain: T1 sequence
Protocol: (§1) For activity ELISA assay, recombinant hCD127 (Sino Biologicals, Beijing, China; reference 10975-H08H) was immobilized on plastic at 1 μg/ml and dilutions of anti-CD127 antibody were added to measure binding.

[3] = target: T2, recombinant hCD127 (Sino Biologicals, …); test: Blitz (BLI), hCD127 captured on anti-human IgG Fc (AHC) biosensor, antibody at 20 µg/mL
Protocol: Recombinant hCD127 (Sino Biologicals, Beijing, China; reference 10975-H08H)/recombinant protein (Sino Biological Cat: 11612-H08H) was immobilized at 50 μg/ml by Fc fragment into anti-human IgG Fc (AHC) biosensor (Forte Bio, 18-5063) for 30 seconds. Then, anti-CD127 antibodies were added at 20 μg/mL (saturating concentration) for an association period of 120 seconds, followed by a dissociation period of anti-CD127 antibody in kinetics buffer for 120 seconds. Data analysis was made with the Blitz pro 1.2 software, which calculated association constant (ka) and dissociation constant (kd) and determined the affinity constant KD […].

[4] = target: T3, human CD127 (IL-7Rα) on human PBMC (human, UniProt P16871 21-459); test: cell-based or functional assay
T3 chain: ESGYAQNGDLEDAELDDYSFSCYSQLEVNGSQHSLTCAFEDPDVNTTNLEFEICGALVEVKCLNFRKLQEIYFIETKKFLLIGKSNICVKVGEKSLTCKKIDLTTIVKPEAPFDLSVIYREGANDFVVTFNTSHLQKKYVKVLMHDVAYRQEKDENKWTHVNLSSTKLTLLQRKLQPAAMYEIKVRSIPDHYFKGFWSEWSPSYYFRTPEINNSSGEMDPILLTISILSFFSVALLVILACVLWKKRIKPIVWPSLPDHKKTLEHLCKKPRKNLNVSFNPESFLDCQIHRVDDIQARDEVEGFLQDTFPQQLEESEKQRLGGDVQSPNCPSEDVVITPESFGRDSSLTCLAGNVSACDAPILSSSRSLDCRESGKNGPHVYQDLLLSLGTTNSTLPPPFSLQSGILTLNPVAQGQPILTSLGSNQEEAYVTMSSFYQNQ

[5] = target: T2, recombinant hCD127 (Sino Biologicals, …); test: ELISA on CD127 after storage of the antibody 14 days at 42° C. (given as ED50)
Protocol: as §1
(§2) Stability of the antibodies was studies by incubating the antibodies for 7, 14, or 30 days at 4° C., 25° C. and 42° C.

[6] = target: T2, recombinant hCD127 (Sino Biologicals, …); test: method not stated
[7] = target: T2, recombinant hCD127 (Sino Biologicals, …); test: ELISA on CD127 after storage of the antibody 30 days at 25° C. (given as ED50)
Protocol: as §1, §2

[8] = target: T2, recombinant hCD127 (Sino Biologicals, …); test: ELISA on CD127 after storage of the antibody 30 days at 42° C. (given as ED50)
Protocol: as §1, §2

[9] = target: T2, recombinant hCD127 (Sino Biologicals, …); test: ELISA on CD127 after storage of the antibody 14 days at 4° C. (given as ED50)
Protocol: as §1, §2

[10] = target: T2, recombinant hCD127 (Sino Biologicals, …); test: ELISA on CD127 after storage of the antibody 7 days at 42° C. (given as ED50)
Protocol: as §1, §2

[11] = target: T2, recombinant hCD127 (Sino Biologicals, …); test: ELISA on CD127 after storage of the antibody 30 days at 4° C. (given as ED50)
Protocol: as §1, §2

[12] = target: T2, recombinant hCD127 (Sino Biologicals, …); test: ELISA on CD127 after storage of the antibody 7 days at 25° C. (given as ED50)
Protocol: as §1, §2

[13] = target: T2, recombinant hCD127 (Sino Biologicals, …); test: ELISA on CD127 after storage of the antibody 7 days at 4° C. (given as ED50)
Protocol: as §1, §2

[14] = target: T2, recombinant hCD127 (Sino Biologicals, …); test: ELISA on CD127 after storage of the antibody 14 days at 25° C. (given as ED50)
Protocol: as §1, §2

| Binder | EC50 [2] [µg/mL] | Kd [3] [nM] | koff [3] [s⁻¹] | kon [3] [M⁻¹ s⁻¹] | IC50-MFI, inhibition of IL7-induced STAT5 phosphorylation in CD3+ human PBMC [4] [µg/mL] | further results |
| --- | --- | --- | --- | --- | --- | --- |
| B1 |  |  |  |  |  | Kd [1]: 0.5 nM |
| B2 | 0.0168 | 2.33 | 0.00267 | 1.15e+06 | 0.0215 |  |
| B3 |  |  |  |  | 0.0272 |  |
| B4 | 0.0126 | 2.71 | 0.00281 | 1.04e+06 | 0.0161 |  |
| B5 | 0.0148 | 2.63 | 0.00266 | 1.01e+06 | 0.0273 |  |
| B6 | 0.0095 | 2.53 | 0.00266 | 1.05e+06 | 0.0168 | EC50 [5]: 0.0406 µg/mL; Kd [6]: 0.2 nM; EC50 [7]: 0.0402 µg/mL; EC50 [8]: 0.0587 µg/mL; EC50 [9]: 0.0628 µg/mL; EC50 [10]: 0.0562 µg/mL; EC50 [11]: 0.047 µg/mL; EC50 [12]: 0.0478 µg/mL; EC50 [13]: 0.0553 µg/mL; EC50 [14]: 0.0526 µg/mL |
| B7 |  |  |  |  |  | Kd [6]: 0.6 nM |
